B1: Human ANGPTL4(26-406)-FLAG-6HIS-Avi (ligand)
chain: GPVQSKSPRFASWDEMNVLAHGLLQLGQGLREHAERTRSQLSALERRLSACGSACQGTEGSTDLPLAPESRVDPEVLHSLQTQLKAQNSRIQQLFHKVAQQQRHLEKQHLRIQHLQSQFGLLDHKHLDHEVAKPARRKRLPEMAQPVDPAHNVSRLHRLPRDCQELFQVGERQSGLFEIQPQGSPPFLVNCKMTSDGGWTVIQRRHDGSVDFNRPWEAYKAGFGDPHGEFWLGLEKVHSITGDRNSRLAVQLRDWDGNAELLQFSVHLGGEDTAYSLQLTAPVAGQLGATTVPPSGLSVPFSTWDQDHDLRRDKNCAKSLSGGWWFGTCSHSNLNGQYFRSIPQQRQKLKKGIFWKTWRGRYYPLQATTMLIQPMAAEAASDYKDDDDKHHHHHHGGGLNDIFEAQKIEWHE
B2: LPL(28-475)-(G4S)4-hGPIHBP1(21-151)-FLAG-HIS6-Avi (enzyme)
chain: ADQRRDFIDIESKFALRTPEDTAEDTCHLIPGVAESVATCHFNHSSKTFMVIHGWTVTGMYESWVPKLVAALYKREPDSNVIVVDWLSRAQEHYPVSAGYTKLVGQDVARFINWMEEEFNYPLDNVHLLGYSLGAHAAGIAGSLTNKKVNRITGLDPAGPNFEYAEAPSRLSPDDADFVDVLHTFTRGSPGRSIGIQKPVGHVDIYPNGGTFQPGCNIGEAIRVIAERGLGDVDQLVKCSHERSIHLFIDSLLNEENPSKAYRCSSKEAFEKGLCLSCRKNRCNNLGYEINKVRAKRSSKMYLKTRSQMPYKVFHYQVKIHFSGTESETHTNQAFEISLYGTVAESENIPFTLPEVSTNKTYSFLIYTEVDIGELLMLKLKWKSDSYFSWSDWWSSPGFAIQKIRVKAGETQKKVIFCSREKVSHLQKGKAPAVFVKCHDKSLNKKSGGGGGSGGGGSGGGGSGGGGSQTQQEEEEEDEDHGPDDYDEEDEDEVEEEETNRLPGGRSRVLLRCYTCKSLPRDERCNLTQNCSHGQTCTTLIAHGNTESGLLTTHSTWCTDSCQPITKTVEGTQVTMTCCQSSLCNVPPWQSSRVQDPTGDYKDDDDKHHHHHHGGGLNDIFEAQKIEWHE
modifications: biotin on the C-terminal AviTag in the ELISA and SPR assays
notes: also called LPL-GPIHBP1 fusion polypeptide; LPL-GPIHBP1 fusion

Experiments:
[1] = target: T1, Co-expressed human LPL/soluble GPIHBP1 complex (human, UniProt P06858 28-475; Q8IV16 21-151, biotin at the C-terminal end of GPIHBP1 in the ELISA and SPR assays); assay: TR-FRET dissociation of the LPL/GPIHBP1 complex (10 nM 6HIS-hLPL-HA-Flag / biotinylated hGPIHBP1-Avi, anti-HA-Tb / streptavidin-D2). ANGPTL4 binds LPL and displaces GPIHBP1. [cont.) C) right graph]
T1 construct: Non-covalent 1:1 complex; also called LPL/GPIHBP1 complex; LPL-GPIHBP1 complex
T1 sequence 1: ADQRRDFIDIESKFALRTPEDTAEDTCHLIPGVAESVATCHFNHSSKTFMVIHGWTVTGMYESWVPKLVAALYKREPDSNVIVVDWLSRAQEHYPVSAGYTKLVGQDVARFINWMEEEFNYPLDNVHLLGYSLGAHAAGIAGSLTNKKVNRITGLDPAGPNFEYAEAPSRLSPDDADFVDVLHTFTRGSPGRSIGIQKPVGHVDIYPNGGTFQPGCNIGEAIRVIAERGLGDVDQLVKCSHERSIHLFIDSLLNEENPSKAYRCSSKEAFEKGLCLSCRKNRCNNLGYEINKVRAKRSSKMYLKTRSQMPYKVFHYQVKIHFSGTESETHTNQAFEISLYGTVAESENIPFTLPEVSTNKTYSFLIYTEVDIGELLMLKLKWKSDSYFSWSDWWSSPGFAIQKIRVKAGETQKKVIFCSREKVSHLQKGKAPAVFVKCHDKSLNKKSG
T1 sequence 2: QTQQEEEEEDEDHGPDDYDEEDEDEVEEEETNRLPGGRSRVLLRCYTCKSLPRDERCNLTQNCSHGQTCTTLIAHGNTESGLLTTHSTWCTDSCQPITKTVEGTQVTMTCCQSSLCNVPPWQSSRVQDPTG
Protocol: The assay for TR-FRET based detection of ANGPTL4 binding to the LPL/GPIHBP1 complex was carried out in 384-well plates (ProxiPlate™ 384-well white, Perkin Elmer, USA) in a final volume of 20 μl. The composition of the assay buffer was 20 mM HEPES pH=7.4, 100 mM NaCl, 10% HI-FBS, 5 mM CaCl₂). The assay procedure was as follows: First 4 μL/well of 5x 6HIS-hLPL-HA-Flag/biotinylated hGPIHBP1-Avi complex (50 nM stock in assay buffer, 10 nM complex final concentration) was added to 8 μL/well buffer. Then 4 μL/well 5x non-biotinylated ANGPTL4(26-406)-Flag-6HIS-Avi (final concentrations of 1 to 1000 nM) was added and incubation was carried out at room temperature for 1 hour. After incubation 4 μL 5× anti-HA-Tb/[…] (Cisbio, diluted in assay buffer to 1.25 nM anti-HA-Tb/50 nM streptavidin-D2 stock concentration) (0.3125 nM anti-HA-Tb/10 nM streptavidin-D2 final concentration) was added and the mixture was incubated at room temperature for 3 hours. Finally the plate was read on an Envision plate reader Ex=320 Em=665 Em=615.

[2] = target: T1, Co-expressed human LPL/soluble GPIHBP1 …; assay: cell-based or functional assay
[3] = target: T2, Recombinant human LPL (mature human lipoprotein lipase, amino acids 28-475) (human, UniProt P06858 28-475); assay: cell-based or functional assay
T2 sequence: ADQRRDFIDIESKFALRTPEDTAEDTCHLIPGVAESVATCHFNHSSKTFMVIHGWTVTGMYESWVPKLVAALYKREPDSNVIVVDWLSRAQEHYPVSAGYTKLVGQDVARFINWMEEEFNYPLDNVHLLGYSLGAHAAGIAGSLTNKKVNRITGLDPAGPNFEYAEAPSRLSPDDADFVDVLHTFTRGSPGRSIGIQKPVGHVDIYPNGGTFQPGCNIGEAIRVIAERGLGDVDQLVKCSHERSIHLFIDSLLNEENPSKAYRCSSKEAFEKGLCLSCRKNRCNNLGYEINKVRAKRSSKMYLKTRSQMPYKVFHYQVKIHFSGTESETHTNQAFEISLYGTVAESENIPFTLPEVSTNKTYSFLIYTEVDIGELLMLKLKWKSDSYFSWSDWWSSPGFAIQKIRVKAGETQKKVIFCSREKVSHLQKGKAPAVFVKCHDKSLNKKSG

[4] = target: B2; assay: cell-based or functional assay
[5] = target: T1, Co-expressed human LPL/soluble GPIHBP1 …; assay: TR-FRET dissociation of the LPL/GPIHBP1 complex: ANGPTL4 binds the LPL of the complex and displaces the labelled GPIHBP1. FRET ratio falls from about 20000 to about 1000 between log -1 and log 3 (nM). [cont.) D]
[6] = target: B1; assay: MSD ELISA: 10 nM biotinylated fusion incubated with ANGPTL4 and captured on streptavidin; bound ANGPTL4 detected with an ANGPTL4 Ab
Protocol: LPL-GPIHBP1 complex or LPL-GPIHBP1 fusion (10 nM, site-specifically biotinylated at the C-terminal end of GPIHBP1) were incubated with increasing concentrations of ANGPTL4 (a 12 point 2-fold serial dilution with highest concentration of 100 nM). The reaction mix was then applied onto a streptavidin coated MSD. The presence of LPL and ANGPTL4 was detected using an LPL or ANGPTL4 specific Abs, which were subsequently quantified using sulpho-tagged secondary Ab. To generate a signal, lx MSD read buffer T was added and the plate was developed using a Sector Imager 6000 (Meso Scale Discovery).
First, the co-expressed LPL/GPIHBP1 complex or the LPL-GPIHBP1 fusion polypeptide was immobilized on a streptavidin surface through C-terminally biotinylated GPIHBP1. The proteins were then incubated with ANGPTL4 and changes in bound ANGPTL4 and LPL were monitored with respective high affinity antibodies. A schematic representation of the assay is depicted on top of FIG. 3, panel A. When the complex was incubated with ANGPTL4, displacement of LPL from the co-expressed LPL/GPIHBP1 complex as function of ANGPTL4 concentration was observed. On the other hand, ANGPTL4 was unable to displace LPL from the covalently linked LPL-GPIHBP1 fusion polypeptide (FIG. 3, panel A, left side). Correspondingly, when bound ANGPTL4 was probed, ANGPTL4 was not captured by the co-expressed LPL/GPIHBP1 complex. […]

hANGPTL4-myc = target: T3, hANGPTL4-myc (human, UniProt Q9BY76); assay: TR-FRET binding assay (anti-HA-Tb / anti-myc-D2). Target taken from paragraph 181 (fusion polypeptide); the methods instead describe a 6HIS-hLPL-HA-Flag/hGPIHBP1-Avi complex at 10 nM. [cont.) C) left graph]
T3 construct: residues 26-406; It is a different tag version from m7; also called ANGPTL4(26-406)-6HIS-myc
T3 sequence (single chain, looked up): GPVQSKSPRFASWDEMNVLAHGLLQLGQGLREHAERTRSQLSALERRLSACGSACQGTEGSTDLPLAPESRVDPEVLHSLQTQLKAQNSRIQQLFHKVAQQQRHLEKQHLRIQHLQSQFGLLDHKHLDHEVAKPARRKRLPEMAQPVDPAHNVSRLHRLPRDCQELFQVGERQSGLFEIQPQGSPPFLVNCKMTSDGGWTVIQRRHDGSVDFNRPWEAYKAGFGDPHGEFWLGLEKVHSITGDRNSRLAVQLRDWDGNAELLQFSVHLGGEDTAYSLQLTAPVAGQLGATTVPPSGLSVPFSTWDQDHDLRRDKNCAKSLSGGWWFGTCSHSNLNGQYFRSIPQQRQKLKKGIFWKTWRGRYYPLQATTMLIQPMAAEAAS

For B1, the “IC50 (read off the curve)” value [1] was roughly 20 nM, the “IC50 of ANGPTL4 inactivation of LPL enzymatic activity” value (shortened to “IC50 … of LPL enzymatic activity”) [2] was 19 nM and the “fold resistance to ANGPTL4 inactivation against LPL alone” value [2] was greater than 6 fold. The “IC50 … of LPL enzymatic activity” value [3] was 3 nM, the “IC50 … of LPL enzymatic activity” value [4] was 107 nM and the “fold increase of the IC50 of ANGPTL4 inactivation against LPL alone” value [4] was greater than 35 fold. For the same binder, the “fold increase of the IC50 of ANGPTL4 inactivation against the co-expressed LPL/GPIHBP1 complex” value [4] was greater than 5 fold and the IC50 [5] was 18 nM.

B2: binds [6]; binds (hANGPTL4-myc).

Source: patent publication US20220025344A1 (Novartis, published 2022)
